Test results from publication PMC5146914.

Assay: circular dichroism
Conditions: 10 mM PBS; pH 7.4; 25 °C; 50-800 uM
Work on `CC(=O)N[C@H]1CCCCC[S@@](=O)C[C@@H](C(N)=O)NC(=O)[C@H](C)NC(=O)[C@H](CCC(N)=O)NC(=O)[C@H](C)NC1=O` yielded a helicity of 93 rel %. For `CC(=O)N[C@H]1CCCCC[S@@](=O)C[C@@H](C(N)=O)NC(=O)[C@H](C)NC(=O)[C@H](C)NC(=O)[C@H](C)NC1=O`, the helicity was 100 rel %. With `CC(=O)N[C@H]1CCCCC[S@@](=O)C[C@@H](C(N)=O)NC(=O)[C@H](C)NC(=O)CNC(=O)[C@H](C)NC1=O` the helicity was 54 rel %. Compound `CC(=O)N[C@H]1CCCCC[S@@](=O)C[C@@H](C(N)=O)NC(=O)[C@H](C)NC(=O)[C@H](CO)NC(=O)[C@H](C)NC1=O` has a helicity of 65 rel %. For `CC(=O)N[C@H]1CCCCC[S@@](=O)C[C@@H](C(N)=O)NC(=O)[C@H](CCC(=O)O)NC(=O)[C@H](C)NC(=O)[C@H](CCCCN)NC1=O`, the helicity was 31 rel %. Compound `CC[C@H](C)[C@@H]1NC(=O)[C@H](C)NC(=O)[C@@H](NC(C)=O)CCCCC[S@@](=O)C[C@@H](C(N)=O)NC(=O)[C@H](C)NC1=O` has a helicity of 86 rel %. For `CC(=O)N[C@H]1CCCCC[S@@](=O)C[C@@H](C(N)=O)NC(=O)[C@H](C)NC(=O)[C@H](Cc2ccccc2)NC(=O)[C@H](C)NC1=O`, the helicity was 92 rel %.
